B1: OX40SF2IgG2sigma_R2BS39_HC-C (bispecific antibody)
heavy: QVQLVQSGAEVKKPGSSVKVSCKASGYTFKDYTMHWVRQAPGQGLEWIGGIYPNNGGSTYNQNFKDRVTLTADKSTSTAYMELSSLRSEDTAVYYCARMGYHGPHLDFDVWGQGTTVTVSSASTKGPSVFPLAPCSRSTSESTAALGCLVKDYFPEPVTVSWNSGALTSGVHTFPAVLQSSGLYSLSSVVTVPSSNFGTQTYTCNVDHKPSNTKVDKTVERKCCVECPPCPAPPAAASSVFLFPPKPKDTLMISRTPEVTCVVVDVSAEDPEVQFNWYVDGVEVHNAKTKPREEQFNSTFRVVSVLTVLHQDWLNGKEYKCKVSNKGLPSSIEKTISKTKGQPREPQVYTLPPSREEMTKNQVSLTCLVKGFYPSDIAVEWESNGQPENNYKTTPPMLDSDGSFFLYSKLTVDKSRWQQGNVFSCSVMHEALHNHYTQKSLSLSPGKGGGGGSGGGGSGGGGSGGGGSLPAPKNLVVSRVTEDSARLSWTAPDAAFDSFLIQYQESEKVGEAIVLTVPGSERSYDLTGLKPGTEYTVSIYGVSHGPWYNYGEWRSNPLSAIFTT
light: DIQMTQSPSSLSASVGDRVTITCKASQDVGAAVAWYQQKPGKAPKLLIYWASTRHTGVPSRFSGSGSGTDFTLTISSLQPEDFATYYCQQYINYPLTFGGGTKVEIKRTVAAPSVFIFPPSDEQLKSGTASVVCLLNNFYPREAKVQWKVDNALQSGNSQESVTEQDSKDSTYSLSSTLTLSKADYEKHKVYACEVTHQGLSSPVTKSFNRGEC
notes: mAbtyrin: anti-OX40 antibody OX40SF2, effector silent IgG2sigma, with linker and R2BS39 FN3 domain at the C-terminus of the heavy chain; also called mAbtyrin
B2: OX40SF2IgG2sigma_R2BS6_HC-C (bispecific antibody)
heavy: QVQLVQSGAEVKKPGSSVKVSCKASGYTFKDYTMHWVRQAPGQGLEWIGGIYPNNGGSTYNQNFKDRVTLTADKSTSTAYMELSSLRSEDTAVYYCARMGYHGPHLDFDVWGQGTTVTVSSASTKGPSVFPLAPCSRSTSESTAALGCLVKDYFPEPVTVSWNSGALTSGVHTFPAVLQSSGLYSLSSVVTVPSSNFGTQTYTCNVDHKPSNTKVDKTVERKCCVECPPCPAPPAAASSVFLFPPKPKDTLMISRTPEVTCVVVDVSAEDPEVQFNWYVDGVEVHNAKTKPREEQFNSTFRVVSVLTVLHQDWLNGKEYKCKVSNKGLPSSIEKTISKTKGQPREPQVYTLPPSREEMTKNQVSLTCLVKGFYPSDIAVEWESNGQPENNYKTTPPMLDSDGSFFLYSKLTVDKSRWQQGNVFSCSVMHEALHNHYTQKSLSLSPGKGGGGGSGGGGSGGGGSGGGGSLPAPKNLVVSRVTEDSARLSWTAPDAAFDSFLIQYQESEKVGEAIVLTVPGSERSYDLTGLKPGTEYTVSIYGVQYAAWYLPRHHEASNPLSAIFTT
light: B1 light
notes: mAbtyrin: anti-OX40 antibody OX40SF2, effector silent IgG2sigma, with linker and R2BS6 FN3 domain at the C-terminus of the heavy chain; also called mAbtyrin

What was measured:
[1] = molecular target: T1, human FcγRIIB (NM_004001) expressed on cells (human, UniProt P31994 43-310); assay: cell-based or functional assay
T1 sequence: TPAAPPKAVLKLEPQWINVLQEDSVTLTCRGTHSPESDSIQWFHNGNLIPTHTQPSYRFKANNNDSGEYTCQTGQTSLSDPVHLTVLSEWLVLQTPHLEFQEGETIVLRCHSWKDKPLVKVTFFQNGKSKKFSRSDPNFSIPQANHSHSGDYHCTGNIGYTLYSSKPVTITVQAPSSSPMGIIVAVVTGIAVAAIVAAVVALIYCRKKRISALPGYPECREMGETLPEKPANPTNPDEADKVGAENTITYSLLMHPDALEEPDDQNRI

[2] = molecular target: T2, human FcγRIIA (NM_021642) expressed on cells (human, UniProt P12318 36-317); assay: cell-based or functional assay
T2 sequence: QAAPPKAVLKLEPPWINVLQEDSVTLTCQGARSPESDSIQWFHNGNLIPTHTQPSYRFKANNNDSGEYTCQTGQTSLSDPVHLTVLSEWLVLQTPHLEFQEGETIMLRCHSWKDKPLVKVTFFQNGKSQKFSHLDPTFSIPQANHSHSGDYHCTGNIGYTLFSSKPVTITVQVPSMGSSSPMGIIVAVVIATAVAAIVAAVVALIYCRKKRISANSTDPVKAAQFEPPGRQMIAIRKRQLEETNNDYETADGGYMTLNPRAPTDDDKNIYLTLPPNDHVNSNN

[3] = molecular target: T3, human OX40 expressed on HEK-Blue: OX40 cells (human, UniProt P43489 29-277); assay: flow cytometry; HEK-Blue: OX40 cells
T3 construct: also called CD134
T3 sequence: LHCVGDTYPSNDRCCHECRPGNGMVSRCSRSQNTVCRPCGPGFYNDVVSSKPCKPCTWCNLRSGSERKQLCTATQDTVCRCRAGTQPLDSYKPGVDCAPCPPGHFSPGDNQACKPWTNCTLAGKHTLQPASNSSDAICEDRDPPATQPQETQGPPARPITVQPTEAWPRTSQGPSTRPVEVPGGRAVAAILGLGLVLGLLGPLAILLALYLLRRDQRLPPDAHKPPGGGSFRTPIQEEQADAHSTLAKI
Experimental: (§1) 2×10⁵ cells per well were seeded in 96-well plate and blocked in BSA Stain Buffer (BD Biosciences, San Jose, USA) for 30 min at 4° C. Cells were incubated with test mAbtyrin on ice for 1.5 h at 4° C. After being washed twice with BSA stain buffer, the cells were incubated with R-PE labeled anti-human or anti-mouse IgG secondary antibody (Jackson Immunoresearch Laboratories) for 45 min at 4° C. The cells were washed twice in stain buffer and then resuspended in 150 μL of Stain Buffer containing 1:200 diluted DRAQ7 live/dead stain (Cell Signaling Technology, Danvers, USA). PE and DRAQ7 signals of the stained cells were detected by Miltenyi MACSQuant flow cytometer (Miltenyi Biotec, Auburn, USA) using B2 and B4 channel respectively. Live cells were gated on DRAQ7 exclusion and the geometric mean fluorescence signals were determined for at least 10,000 live events collected. FlowJo software (Tree Star) was used for analysis. Data was plotted as the logarithm of antibody concentration versus mean fluorescence signals. Nonlinear regression analysis was performed by GraphPad Prism 6 (GraphPad Software, Inc.) and EC₅₀ values were calculated.
The binding of mAbtyrins on OX40 expressed on cell surface were investigated by flow cytometry assay described for testing mAbtyrin binding to FcγR. A stable HEK-Blue reporter cell line expressing human OX40 (HEK-Blue: OX40) was established by transfection OX40 expression plasmid (pUNO1-hOX40) into HEK-Blue™ Null 1 cells engineered to express a secreted embryonic alkaline phosphatase (SEAP) reporter gene under the control of NF-κB-inducible promoter (IFN-β minimal promoter). mAbtyrins were incubated with HEK-Blue: OX40 cells and the binding was detected by flow cytometry using a PE-labeled Goat F(ab′)₂ against Human IgG(γ).

[4] = molecular target: T1, human FcγRIIB (NM_004001) expressed on …; assay: flow cytometry; Raji cells (express predominantly FcγRIIB)
[5] = molecular target: T2, human FcγRIIA (NM_021642) expressed on …; assay: flow cytometry; Expi293F cells transfected with FcγRIIA
Experimental: (§2) Plasmids expressing cDNAs encoding human FcγRI (NM_000566) (SEQ ID NO: 44), FcγRIIA (NM_021642) (SEQ ID NO: 2), FcγRIIB (NM_004001) (SEQ ID NO: 3), and FcγRIIIA (NM_000569) (SEQ ID NO: 45) (Origene) were transiently transfected into Expi293F cells by ExpiFectamine293 transfection kit (Life Technologies). Flow cytometry assays were performed 48 h after transfection.
as §1

[6] = molecular target: T1, human FcγRIIB (NM_004001) expressed on …; assay: flow cytometry; Expi293F cells transfected with FcγRIIB
Experimental: as §2, §1

[7] = molecular target: T1, human FcγRIIB (NM_004001) expressed on …; assay: flow cytometry; Raji cells (express predominantly FcγRIIB); remark: listed apart in the source
Experimental: as §1
Raji cell is a cell line derived from B cells that express predominantly FcγRIIB. The binding of mAbtyrins on Raji cells were investigated by flow cytometry assay described for testing mAbtyrin binding to FcγR. Binding of the mAbtyrins were detected by flow cytometry using a PE-labeled Goat F(ab′) against Human IgG(γ).

| Binder | % activity at 1 µg/ml with Raji cells (HEK-Blue: OX40 NF-κB reporter, relative to 1 µg/ml OX40 ligand) [1] | fold of agonism enhancement upon crosslinking (Raji cells) [1] | % OX40 cell killed by macrophages (ADCP, 1 µg/ml) [2] | Binding to HEK-Blue: OX40 cells (mean signal at 1 µg/ml) [3] | fold binding signal over OX40SF2IgG2sigma at 10 µg/mL [4] | EC50 [5] | EC50 [6] | Binding to Raji cells mean signals at 10 µg/ml [7] | EC50 [7] |
| --- | --- | --- | --- | --- | --- | --- | --- | --- | --- |
| B1 | 99.5% | 24 fold | 83% | 9320 mean fluorescence signal | ≥ 6 fold | 0.532 µg/mL | 1.87 µg/mL | 8220 mean fluorescence signal | > 10 µg/mL |
| B2 | 83.5% | 17 fold | 82% | 10400 mean fluorescence signal | ≥ 6 fold | 0.7 µg/mL | 1.56 µg/mL | 5380 mean fluorescence signal | > 10 µg/mL |
